{"source": "FireProtDB (doi:10.1021/acs.biochem.7b01284)", "proteins": {"B1": {"name": "Geranylgeranylglyceryl phosphate synthase wild type, O26652 (protein)", "chain": "MKVEDYFHDILRERKIHLTLIDPEEQTPEEAVEIARAAIRGGTDGIMLGGSTTDSSELDNTARALRENIDVPIILFPGNTTGVSRYADAIFFMSLLNSTNPYWIIGAQALGAATVKKMGIEALPMGYLVVEPGGTVGWVGDTKPVPRNKPDIAAAYAMAAEFLGMRLFYLEAGSGAPEHVPEEMIALVKRCTDQILIVGGGIRSGEDAARVAGAGADVVVTGTVVENSDNVEDKIREIVEGMGSV"}}, "details": "Methanothermobacter thermautotrophicus (strain ATCC 29096 / DSM 1053 / JCM 10044 / NBRC 100330 / Delta H); pH 7.5; Thermal; DSC; potassium phosphate buffer; reversible: no; whole UniProt chain shown", "data": [{"protein": "B1", "values": [{"measurement": "unfolding enthalpy (calorimetric)", "value": 389, "unit": "kcal/mol"}]}]}
